Data from patent US20190008977A1 (ASCENDIS PHARMA GROWTH DISORDERS A S, published 2019).
Bridge positions count the residues as written; N and C are the ends. Side chains are listed from the residue outwards. Ends that are not written are not given here. * marks the point of attachment. Hexanoyl(6-maleimido) = O=C1C=CC(=O)N1CCCCCC(=O)*; reversible prodrug linker = not defined here

What was measured:
[1] = target: T1, NPR-B expressed endogenously on NIH-3T3 cells (Murine Embryo Fibroblast cell line) (mouse (endogenous in the murine NIH-3T3 …, UniProt Q6VVW5 17-1047)); test: cell-based or functional assay
T1 sequence (looked up): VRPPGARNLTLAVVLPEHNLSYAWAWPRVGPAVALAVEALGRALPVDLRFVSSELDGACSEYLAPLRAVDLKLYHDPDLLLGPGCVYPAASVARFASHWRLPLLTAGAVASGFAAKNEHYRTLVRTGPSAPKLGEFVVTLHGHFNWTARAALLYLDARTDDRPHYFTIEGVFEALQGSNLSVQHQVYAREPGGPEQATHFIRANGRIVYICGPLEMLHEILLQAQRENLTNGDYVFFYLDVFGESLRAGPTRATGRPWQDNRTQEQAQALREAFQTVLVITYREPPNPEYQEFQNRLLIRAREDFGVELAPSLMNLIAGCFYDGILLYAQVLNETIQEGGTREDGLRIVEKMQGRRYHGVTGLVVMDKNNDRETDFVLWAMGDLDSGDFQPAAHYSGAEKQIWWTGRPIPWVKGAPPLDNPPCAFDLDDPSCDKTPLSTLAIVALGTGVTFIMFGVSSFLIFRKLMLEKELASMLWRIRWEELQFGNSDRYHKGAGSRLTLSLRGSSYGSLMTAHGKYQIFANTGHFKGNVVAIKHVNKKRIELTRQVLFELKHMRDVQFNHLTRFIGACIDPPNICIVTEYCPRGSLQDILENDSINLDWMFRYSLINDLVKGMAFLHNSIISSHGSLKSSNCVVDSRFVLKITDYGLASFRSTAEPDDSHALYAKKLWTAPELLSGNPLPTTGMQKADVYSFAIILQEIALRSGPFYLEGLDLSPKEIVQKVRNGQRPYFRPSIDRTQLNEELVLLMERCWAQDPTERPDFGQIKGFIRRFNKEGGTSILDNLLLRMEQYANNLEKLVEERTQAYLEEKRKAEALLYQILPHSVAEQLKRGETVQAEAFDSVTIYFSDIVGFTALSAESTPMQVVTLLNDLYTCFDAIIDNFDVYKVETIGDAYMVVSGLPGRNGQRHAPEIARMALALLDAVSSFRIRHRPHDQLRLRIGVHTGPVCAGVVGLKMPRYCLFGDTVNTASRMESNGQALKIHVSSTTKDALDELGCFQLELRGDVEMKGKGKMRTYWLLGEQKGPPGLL

[2] = target: T1, NPR-B expressed endogenously on NIH-3T3 …; test: cell-based or functional assay; remark: listed apart in the source
[3] = target: T2, permanent Lys26 CNP-38 PEG4x10 kDa conjugate 12g
T2 chain: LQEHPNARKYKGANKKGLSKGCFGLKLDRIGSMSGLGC

[4] = target: T3, permanent N-terminal CNP-34 PEG 5 kDa conjugate 14e
T3 chain: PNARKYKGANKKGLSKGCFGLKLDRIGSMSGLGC

[5] = target: T4, permanent N-terminal CNP-38 PEG 5 kDa conjugate 15e
T4 chain: T2 chain

Binder: LQEHPNARKYKGANKKGLSKGCFGLK([reversible prodrug linker-branched PEG 2x20 kDa])LDRIGSMSGLGC (disulfide 22-38; reading uncertain) [reversible Lys26 CNP-38 PEG2x20 kDa conjugate 10f]
- EC50 compound/EC50 CNP-38 (cGMP stimulation in NIH-3T3 cells, residual NPR-B activity) [1]: > 100 ratio

B1: permanent Lys26 CNP-38 PEG 5 kDa conjugate 19e (peptide)
peptide: T2 chain
modifications: 5 kDa PEG stably attached through a maleimidohexanoyl group at the side chain of Lys26 (ring lysine); disulfide Cys22-Cys38
- EC50 compound/EC50 CNP-38 (cGMP stimulation in NIH-3T3 cells, residual NPR-B activity) [1]: > 100 ratio

Binder: LQEHPNARKYKGANKKGLSKGCFGLKLDRIGSMSGLGC (disulfide 22-38) [Released CNP-38 (isolated by RP-HPLC after 7 d incubation of 11i under physiological conditions)]
- EC50 compound/EC50 CNP-38 (cGMP stimulation in NIH-3T3 cells) [2]: 1 ratio

B2: recombinant human Neutral Endopeptidase (NEP) (protein)
chain: YDDGICKSSDCIKSAARLIQNMDATTEPCTDFFKYACGGWLKRNVIPETSSRYGNFDILRDELEVVLKDVLQEPKTEDIVAVQKAKALYRSCINESAIDSRGGEPLLKLLPDIYGWPVATENWEQKYGASWTAEKAIAQLNSKYGKKVLINLFVGTDDKNSVNHVIHIDQPRLGLPSRDYYECTGIYKEACTAYVDFMISVARLIRQEERLPIDENQLALEMNKVMELEKEIANATAKPEDRNDPMLLYNKMTLAQIQNNFSLEINGKPFSWLNFTNEIMSTVNISITNEEDVVVYAPEYLTKLKPILTKYSARDLQNLMSWRFIMDLVSSLSRTYKESRNAFRKALYGTTSETATWRRCANYVNGNMENAVGRLYVEAAFAGESKHVVEDLIAQIREVFIQTLDDLTWMDAETKKRAEEKALAIKERIGYPDDIVSNDNKLNNEYLELNYKEDEYFENIIQNLKFSQSKQLKKLREKVDKDEWISGAAVVNAFYSSGRNQIVFPAGILQPPFFSAQQSNSLNYGGIGMVIGHEITHGFDDNGRNFNKDGDLVDWWTQQSASNFKEQSQCMVYQYGNFSWDLAGGQHLNGINTLGENIADNGGLGQAYRAYQNYIKKNGEEKLLPGLDLNHKQLFFLNFAQVWCGTYRPEYAVNSIKTDVHSPGNFRIIGTLQNSAEFSEAFHCRKNSYMNPEKKCRVW
- half life norm. [h] (in vitro NEP cleavage assay) [3]: Almost no proteolysis after 4 days.
- half life norm. [h] (in vitro NEP cleavage assay) [4]: Almost no proteolysis after 4 days.
- half life norm. [h] (in vitro NEP cleavage assay) [5]: Almost no proteolysis after 4 days.

Binder: LQEHPNARKYKGANKKGLSKGCFGLK(branched PEG 4x10 kDa)LDRIGSMSGLGC (disulfide 22-38) [permanent Lys26 CNP-38 PEG4x10 kDa conjugate 12g]
- EC50 compound/EC50 CNP-38 (cGMP stimulation in NIH-3T3 cells, residual NPR-B activity) [1]: > 100 ratio

Binder: {PEG 5 kDa-Hexanoyl(6-maleimido)}-LQEHPNARKYKGANKKGLSKGCFGLKLDRIGSMSGLGC (disulfide 22-38) [permanent N-terminal CNP-38 PEG 5 kDa conjugate 15e]
- EC50 compound/EC50 CNP-38 (cGMP stimulation in NIH-3T3 cells, residual NPR-B activity) [1]: > 5 ratio

Binder: LQEHPNARKYKGANKKGLSKGCFGLK([reversible prodrug linker-branched PEG 4x10 kDa])LDRIGSMSGLGC (disulfide 22-38; reading uncertain) [reversible Lys26 CNP-38 PEG4x10 kDa conjugate 11i]
- EC50 compound/EC50 CNP-38 (cGMP stimulation in NIH-3T3 cells, residual NPR-B activity) [1]: > 100 ratio
